The results in this text go back to US5688912A, “Peptide ligands which bind to von willebrand factor” (Bayer Corporation, priority 1995, dated 1997).

Format in all cases: binding
For assay [1], the target named is T1, von Willebrand Factor (vWF) (Homo sapiens, UniProt P04275). The experiment in a line: Peptide-Toyopearl affinity column chromatography of Koate; vWF in fractions by ELISA, protein by A280. More on the design: Koate® containing vWF, FVIII, and albumin was a product of Bayer Corp; tissue Bayer Corp. (Clayton, N.C.) Koate; host or cells: plasma-derived concentrate (Koate). As to conditions: for percentage of vWF eluted: 0.5M calcium chloride. On the technique in general: An ELISA detects its analyte on a solid surface through an enzyme-linked reagent.

Assay [2] has as its target T1, von Willebrand Factor (vWF). Nature of the assay: Purification of vWF from cryoprecipitate PEG filtrate of human plasma on peptide-Toyopearl column. As to conditions: PEG filtrate treated with TNBP/Tween 20; 54 mg/ml peptide; eluted with 0.35M CaCl2. The method, then: The starting material called PEG filtrate was processed from human plasma cryoprecipitate at Bayer Corp. (Clayton, N.C.). This material contained vWF, FVIII, significant fibrinogen, fibronectin, and IgM. The PEG filtrate was treated with 1% TNBP (tri-n-butylphosphate) and 0.5 % Tween 20 (from Aldrich) at 30° C. for 3 hours. After the treatment, the mixture was directly injected onto peptide affinity columns.
Confirmation of the purification of vWF on RVRSFY-Toyopearl was performed using PEG filtrate as the starting material (FIG. 2). Inclusion of a 0.15M NaCl wash and an additional 0.35M NaCl wash removed the bulk of the albumin. Bound vWF was eluted with 2% acetic acid.
The PEG filtrate was treated with virus inactivation reagents, 1% TNBP and 0.5% Tween 20 at 30° C. for 3 hours. The treated PEG fitrate was injected directly into the column. […] Approximately 74% of the total vWF was eluted with 0.35M CaCl2 (small peak at 10 min).

Assay [3] shares this target. Nature of the assay: Batch adsorption isotherm of vWF onto peptide-Toyopearl, Langmuir fit. More on the design: Koate® containing vWF, FVIII, and albumin was a product of Bayer Corp; tissue Bayer Corp. (Clayton, N.C.) Koate; host or cells: plasma-derived concentrate (Koate). The method, then: Adsorption isotherms were measured in a batch mode. In a siliconized microcentrifuge tube, 0.1 ml wet gel was mixed with vWF solution of 10 mM HEPES, 5 mM calcium chloride and 0.5M sodium chloride at pH 7 in a total volume of 0.3 ml. The microcentrifuge tube was incubated at 25° C. for 20 minutes, then the gel was separated from the solution by microcentrifugation. The concentrations of vWF in solutions were measured both by absorbance at 280 nm with an extinction coefficient of 1.2 for 1 mg/ml vWF and by ELISA.
Interactions between RVRSFY directly synthesized on Toyopearl and vWF were studied through adsorption isotherm measurements. Because vWF consists of a wide range of molecular weights, complex theoretical analyses are required to obtain binding constants from the adsorption isotherms. In addition, different multimers of vWF may have different binding constants. To simplify the analyses, vWF with molecular weight around 1000 kDa was fractionated from Koate using size exclusion chromatography with Bio-Gel A-5M gel (BioRad) and analyzed by nonreducing agarose gel electrophoresis.
An increase of peptide density increases adsorption of vWF. A minimum peptide density, 32 mg peptide Ac-RVRSFYK/ml resin ([…]), is required for the binding of vWF to the peptide. The Langmuir equation was used to fit these isotherms, and the association constants and maximum capacities obtained from curve fits are listed in Table 3. They show an increase of association constant and maximum binding capacity with an increase of peptide density mobilized on the Toyopearl resin.

Assay [4] shares this target. The experiment in a line: Peptide-Toyopearl affinity column chromatography of Koate; vWF in fractions by ELISA, protein by A280. The arrangement: Koate® containing vWF, FVIII, and albumin was a product of Bayer Corp; tissue Bayer Corp. (Clayton, N.C.) Koate; host or cells: plasma-derived concentrate (Koate). The method, then:
The gel slurry (1 ml wet gel mixed with 2 ml degassed PBS and 1 M sodium chloride buffer) was transferred into a packing device (from PerSeptive Biosystems, Framingham, Mass.) and packed into a PEEK column (0.75 cm×5 cm from Alltech, Deerfield, Ill.) at a flow rate of 8 ml/min. […] The column was washed with at least 4 bed volumes of binding buffer (10 mM HEPES, 100 mM NaCl, 5 mM calcium chloride at pH 7) and elution buffer (2% acetic acid), then equilibrated with binding buffer.
Protein concentrations were monitored by A280 absorbance. Samples were characterized using vWF ELISA. Briefly, anti-vWF antibody (from Accurate Inc. N.Y.) was coated on each well of a microliter plate (96 wells from Corning, N.Y. 14831) overnight using 100 μl solution of antibody diluted 200 times in 0.1M sodium bicarbonate buffer at pH 9.6. Each well was then blocked with 300 μl solution of 1% BSA in PBS for 1 hour at room temperature. The plate was washed 5 times with PBS. Pure vWF and the collected samples were diluted to a concentration range between 0.02 to 0.2 μg/ml using 1 mg/ml BSA in PBS. Each sample (100 μl) was incubated with the anti-vWF coated well for 1 hour at room temperature and the plate was washed 5 times with PBS plus 0.1% Tween 20. A second anti-vWF antibody with horse radish peroxidase (HRP) conjugate (from DAKO, Glostrup, Denmark) at a concentration of 1 to 500 dilution was introduced to each well and incubated for i hour at room temperature. The plate was washed again with PBS plus 0.1% Tween 20 for 5 times. Substrate ABTS (2,2'-azino-bis(3-ethylbenz-thiazoline-6-sulfonic acid)) and H2 O2 were used for the kinetic reading at 410 nm using Bio Kinetics Reader from BioTek (Winooski, Vt.).
Peptide RLRSFY was directly synthesized (25) onto a modified Toyopearl resin (--(β-Ala)2 -Toyopearl) and the resin was packed in a 1 ml column (0.7×2.5 cm). Koate (Bayer's product containing vWF, FVIII and human albumin) was applied to the column at a flow rate of 2 ml/min in binding buffer (10 mM HEPES, 5 mM calcium chloride and 0.1M NaCl, pH 7). After 1 min of washing in binding buffer, a linear gradient from 0.1 to 1M NaCl in HEPES buffer was applied to the column over 5 min. The elution with high salt concentration was maintained for another 1 min, before 2% acetic acid was used to elute the retained protein. […] The remainder was eluted using 2% acetic acid. In a control experiment in which no peptide was attached to the resin (only --(β-Ala)2 -Toyopearl), almost all protein from 0.1 ml Koate flowed through the column under the same conditions used for the peptide-Toyopearl column.
Single conservative amino acid substitutions at the first three positions of RLRSFY were synthesized directly on (β-Ala)2 -Toyopearl. Amino acid substitutions used for both positions of arginine (R) were histidine (H), lysine (K), glutamine (Q), and asparagine (N). Substitutions for leucine (L) include isoleucine (I), valine (V), phenylalanine (F), and tyrosine (Y). These individual substitutions created 12 unique peptide sequences. (SEQ ID NOS: 1 to 12 ) After the resins were packed into 1 ml glass columns, 0.1 ml Koate was applied to each column and eluted with sodium chloride gradient and 2% acetic acid, same as in FIG. 1. Fractions were collected and analyzed for A280 absorbance and ELISA. […] The substitution of the R at the third position from the N-terminus had no effect on the capture of vWF from Koate. […] Maximum vWF binding occurred when L was substituted for V.

With “Ac-RVRSFYK-amide (Ac-RVRSFYK-NH2) [Ac-RVRSFYK-Toyopearl, peptide immobilized to Toyopearl-Epoxy-650M resin through the C-terminal lysine]”, the “total vWF in the CaCl2 fraction (ELISA)” value in assay [1] (0.1 ml Koate, 0.4 ml column, 54 mg/ml peptide, 0.5M CaCl2) is given as 82.5%. The “percentage of vWF eluted” value in assay [1] (22° C.) was 80%; in assay [1] (26° C.), 85%; in assay [4] (0.5M calcium chloride, 30° C.), 89%. In addition, the “vWF captured by the peptide column” value in assay [1] (Koate, solution pH 4.6) was 65%; in assay [4] (Koate, between pH 6 and 7), “about 95%”; in assay [4] (Koate, solution pH 5) it was 91%. Moreover, in assay [2], the “total vWF eluted” value is on record as “Approximately 74%”. For the same substance, the Association constant is 882000 M⁻¹ in assay [3] (peptide density 32 mg/ml), 1.12e+06 M⁻¹ in assay [3] (peptide density 45 mg/ml), 1.68e+06 M⁻¹ in assay [3] (peptide density 54 mg/ml) and 2.06e+06 M⁻¹ in assay [3] (peptide density 60 mg/ml). Besides, the Maximum capacity in assay [3] (peptide density 32 mg/ml) was 2.32 mg/mL; in assay [3] (peptide density 45 mg/ml), 7.3 mg/mL; in assay [3] (peptide density 54 mg/ml) it was 9.7 mg/mL; in assay [3] (peptide density 60 mg/ml), 10.33 mg/mL. Further, the “vWF recovered in all fractions (ELISA)” value in assay [4] (0.1 ml Koate, 0.4 ml column, 54 mg/ml peptide) is 87.8%. For the same substance, in assay [4] (calcium and magnesium concentrations higher than 0.3M), the “captured vWF eluted” value is listed as “about 80%”. Moreover, the “release of captured vWF by salt elution” value in assay [4] (elution with 2M NaCl, Koate) was “not released”.
